We go through twelve molecules from PMC3834835, “Crystal structure of RuvC resolvase in complex with Holliday junction substrate” (Nucleic Acids Research, 2013).

The target in series [1] is Tt-RuvC as crystallised in complex with a synthetic Holliday junction (T. thermophilus) (UniProt Q5SJC4). Briefly: crystal structure; Tt-RuvC with synthetic Holliday junction (oligonucleotides J221 and J222), crystals from 0.3-0.5 M ammonium phosphate; molecular replacement, 3.75 Å; asymmetric unit holds a RuvC dimer and one HJ.
In another series the target is T1, Tt-RuvC E70Q L80C (Thermus thermophilus, UniProt Q5SJC4 1-166, E70Q;L80C).
T1 sequence: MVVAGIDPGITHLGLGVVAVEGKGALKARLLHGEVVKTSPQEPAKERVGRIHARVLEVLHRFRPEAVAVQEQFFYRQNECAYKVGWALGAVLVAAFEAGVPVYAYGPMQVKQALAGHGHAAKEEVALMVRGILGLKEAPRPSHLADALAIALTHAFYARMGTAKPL
Put plainly: site-specific thiol cross-linking; 5 mM Mg2+; Cross-linking: 100 mM NaCl, 10 mM HEPES pH 7.0, 0.5 mM DTT, 15% glycerol, 5 mM MgCl2 (+100 mM KCl for backbone thiols), protein:DNA 1:1, 37 C 2.5 h then 25 C overnight. Particulars: protein: recombinant, tags: N-terminal His-tag, chain copies: 2, Holliday junction of 2 strands, TTT loops.

A further series concerns the target T2, Tt-RuvC E70Q R76C (Thermus thermophilus, UniProt Q5SJC4 1-166, E70Q;R76C).
T2 sequence: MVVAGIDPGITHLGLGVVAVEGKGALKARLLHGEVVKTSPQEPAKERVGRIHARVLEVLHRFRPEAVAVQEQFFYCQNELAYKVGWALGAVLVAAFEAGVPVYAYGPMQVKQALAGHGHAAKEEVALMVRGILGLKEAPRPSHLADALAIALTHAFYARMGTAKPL
Put plainly: site-specific thiol cross-linking; 5 mM Mg2+; high efficiency; Cross-linking: 100 mM NaCl, 10 mM HEPES pH 7.0, 0.5 mM DTT, 15% glycerol, 5 mM MgCl2 (+100 mM KCl for backbone thiols), protein:DNA 1:1, 37 C 2.5 h then 25 C overnight. Particulars: protein: recombinant; tags: N-terminal His-tag; chain copies: 2; Holliday junction of 2 strands, TTT loops, 2 bp homology core.

Another series has as its target T3, Tt-RuvC E70Q Q77C (Thermus thermophilus, UniProt Q5SJC4 1-166, E70Q;Q77C).
T3 sequence: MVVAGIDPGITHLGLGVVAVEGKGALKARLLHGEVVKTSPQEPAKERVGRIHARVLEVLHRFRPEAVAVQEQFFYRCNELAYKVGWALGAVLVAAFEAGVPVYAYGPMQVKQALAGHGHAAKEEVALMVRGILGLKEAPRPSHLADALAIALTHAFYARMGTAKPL
The series is described as above. Conditions: protein: recombinant; tags: N-terminal His-tag; chain copies: 2; Holliday junction of 2 strands, TTT loops, 2 bp homology core.

In series [2] the target is T4, Tt-RuvC E70Q T11C (Thermus thermophilus, UniProt Q5SJC4 1-166, E70Q;T11C).
T4 sequence: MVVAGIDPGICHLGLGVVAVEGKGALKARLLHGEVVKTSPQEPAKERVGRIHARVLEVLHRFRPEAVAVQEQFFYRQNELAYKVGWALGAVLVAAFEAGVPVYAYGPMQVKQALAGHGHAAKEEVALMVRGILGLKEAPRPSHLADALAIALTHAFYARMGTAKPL
Put plainly: site-specific thiol cross-linking; 5 mM Mg2+, 100 mM KCl; most efficient; Cross-linking: 100 mM NaCl, 10 mM HEPES pH 7.0, 0.5 mM DTT, 15% glycerol, 5 mM MgCl2 (+100 mM KCl for backbone thiols), protein:DNA 1:1, 37 C 2.5 h then 25 C overnight. Conditions: protein: recombinant; tags: N-terminal His-tag; chain copies: 2; Holliday junction of 4 strands, immobile.

For a further series, the target named is T5, Tt-RuvC E70Q M108C (Thermus thermophilus, UniProt Q5SJC4 1-166, E70Q;M108C).
T5 sequence: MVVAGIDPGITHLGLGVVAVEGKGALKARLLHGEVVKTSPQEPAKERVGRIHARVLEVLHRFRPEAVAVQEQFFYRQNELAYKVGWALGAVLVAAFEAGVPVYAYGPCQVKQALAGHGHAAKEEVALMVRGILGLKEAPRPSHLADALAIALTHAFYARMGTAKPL
Briefly: site-specific thiol cross-linking; 5 mM Mg2+, 100 mM KCl; Cross-linking: 100 mM NaCl, 10 mM HEPES pH 7.0, 0.5 mM DTT, 15% glycerol, 5 mM MgCl2 (+100 mM KCl for backbone thiols), protein:DNA 1:1, 37 C 2.5 h then 25 C overnight. Conditions: protein: recombinant; tags: N-terminal His-tag; chain copies: 2; Holliday junction of 4 strands, immobile.

Series [3] deals with T6, Tt-RuvC E70Q P40C (Thermus thermophilus, UniProt Q5SJC4 1-166, E70Q;P40C).
T6 sequence: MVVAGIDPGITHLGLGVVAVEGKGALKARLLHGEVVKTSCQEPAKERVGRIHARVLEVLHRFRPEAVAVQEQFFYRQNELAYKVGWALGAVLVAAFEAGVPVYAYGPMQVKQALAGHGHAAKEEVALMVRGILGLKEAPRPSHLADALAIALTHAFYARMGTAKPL
Briefly: site-specific thiol cross-linking; 5 mM Mg2+, 100 mM KCl; most efficient; Cross-linking: 100 mM NaCl, 10 mM HEPES pH 7.0, 0.5 mM DTT, 15% glycerol, 5 mM MgCl2 (+100 mM KCl for backbone thiols), protein:DNA 1:1, 37 C 2.5 h then 25 C overnight. Conditions: protein: recombinant; tags: N-terminal His-tag; chain copies: 2; Holliday junction of 4 strands, immobile.

Another series concerns the target T7, Tt-RuvC E70Q R140C (Thermus thermophilus, UniProt Q5SJC4 1-166, E70Q;R140C).
T7 sequence: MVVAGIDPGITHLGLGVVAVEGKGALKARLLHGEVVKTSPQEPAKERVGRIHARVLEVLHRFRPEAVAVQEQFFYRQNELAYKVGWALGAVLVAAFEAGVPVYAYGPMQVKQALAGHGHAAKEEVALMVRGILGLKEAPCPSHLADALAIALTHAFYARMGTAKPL
Put plainly: site-specific thiol cross-linking; 5 mM Mg2+, 100 mM KCl; Cross-linking: 100 mM NaCl, 10 mM HEPES pH 7.0, 0.5 mM DTT, 15% glycerol, 5 mM MgCl2 (+100 mM KCl for backbone thiols), protein:DNA 1:1, 37 C 2.5 h then 25 C overnight. Conditions: protein: recombinant; tags: N-terminal His-tag; chain copies: 2; Holliday junction of 4 strands, immobile.

The target in series [4] is T4, Tt-RuvC E70Q T11C. Briefly: site-specific thiol cross-linking; 5 mM Mg2+, 100 mM KCl; single modification; Cross-linking: 100 mM NaCl, 10 mM HEPES pH 7.0, 0.5 mM DTT, 15% glycerol, 5 mM MgCl2 (+100 mM KCl for backbone thiols), protein:DNA 1:1, 37 C 2.5 h then 25 C overnight. Particulars: protein: recombinant; tags: N-terminal His-tag; chain copies: 2; Holliday junction of 4 strands.

Series [5] deals with T6, Tt-RuvC E70Q P40C. The series is described as above. Conditions: protein: recombinant; tags: N-terminal His-tag; chain copies: 2; Holliday junction of 4 strands.
Another series deals with T8, Tt-RuvC E70Q (Thermus thermophilus, UniProt Q5SJC4 1-166, E70Q).
T8 sequence: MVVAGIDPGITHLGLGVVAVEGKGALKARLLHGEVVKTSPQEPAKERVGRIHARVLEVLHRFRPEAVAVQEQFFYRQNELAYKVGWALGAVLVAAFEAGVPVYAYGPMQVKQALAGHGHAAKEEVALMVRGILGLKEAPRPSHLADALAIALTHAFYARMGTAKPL
Put plainly: X-ray crystallography (3.75 A); 0.3-0.5 M ammonium phosphate; Cross-linking: 100 mM NaCl, 10 mM HEPES pH 7.0, 0.5 mM DTT, 15% glycerol, 5 mM MgCl2 (+100 mM KCl for backbone thiols), protein:DNA 1:1, 37 C 2.5 h then 25 C overnight. Conditions: protein: recombinant; tags: none (N-terminal His-tag removed with PreScission protease); chain copies: 2; Holliday junction of 2 strands, TTT loops on two arms.

Series [6] deals with the molecule itself. Put plainly: crystal structure; apo Tt-RuvC, crystals from 0.1 M citric acid (pH 3.5) and 1.5 M NaCl; SAD, 1.35 Å; asymmetric unit holds a RuvC dimer.

One may read the stoichiometry N as the number of molecules, sites or subunits per partner or assembly. In the case of “Tt-RuvC as crystallised in complex with a synthetic Holliday junction (from UniProt Q5SJC4 1-166) (enzyme)”, the stoichiometry N in [1] amounted to 2.

B1: HJ-25-h (structured_DNA)
DNA 1: CAATCGGCCAAGACCTTTGGTCTTGCGGCAGAT
DNA 2: ATCTGCCGCATATGGTTTCCAGATGGCCGATTG
modifications: thiol on guanine 25 of one strand
In the case of B1, the binding result in the series with Tt-RuvC E70Q L80C (2 bp homology core) is listed as “binds”.

B2: HJ-25 (structured_DNA)
DNA 1: CAATCGGCCAAGACCTTTGGTCTTGCGGCAGAT
DNA 2: ATCTGCCGCATATGGTTTCCAGATGGCCGATTG
modifications: thiol (cysteamine) on position 2 of guanine 25 of both strands
As to B2, the binding result in the series with Tt-RuvC E70Q R76C and with Tt-RuvC E70Q Q77C was “binds” each time.

B3: HJ-28bb (structured_DNA)
DNA 1: GACGGCCTCGCAATCGACTATGACCGAGCACGCGAGATGT
DNA 2: ACATCTCGCGTGCTCGGTCATTCTGCAGATGCGGAGTGAA
DNA 3: TTCACTCCGCATCTGCAGATTCTGGCTGTGGCGTGTTTCT
DNA 4: AGAAACACGCCACAGCCAGAAAGTCGATTGCGAGGCCGTC
modifications: thiol tether on phosphate after nt 24 of strands 2 and 4
With B3, the binding result in the series with Tt-RuvC E70Q T11C [2] and with Tt-RuvC E70Q M108C was “binds” each time.

B4: HJ-29bb (structured_DNA)
DNA 1: GACGGCCTCGCAATCAGCTATGACCGAGCACGCGAGATGT
DNA 2: ACATCTCGCGTGCTCGGTCATTCGTCAGATGCGGAGTGAA
DNA 3: TTCACTCCGCATCTGACGATTCTGGCTGTGGCGTGTTTCT
DNA 4: AGAAACACGCCACAGCCAGAAAGCTGATTGCGAGGCCGTC
modifications: thiol tether on phosphate after nt 25 of strands 2 and 4
As to B4, the binding result in the series with Tt-RuvC E70Q P40C [3] and in the series with Tt-RuvC E70Q M108C was “binds” throughout.

B5: HJ-3bb (structured_DNA)
DNA 1: GACGGCCTCGCATTCGGCTATGACCGAGCACGCGAGATGT
DNA 2: ACATCTCGCGTGCTCGGTCATTCGGCAAGTGCGGAGTGAA
DNA 3: TTCACTCCGCACTTGCCGATTCTGGCTGTGGCGTGTTTCT
DNA 4: AGAAACACGCCACAGCCAGAAAGCCGAATGCGAGGCCGTC
modifications: thiol tether on phosphate after nt 13 of strands 1 and 3
Take B5: in the series with Tt-RuvC E70Q R140C, the binding result was “binds”.

B6: HJ-29bb-h (structured_DNA)
DNA 1: GACGGCCTCGCAATCAGCTATGACCGAGCACGCGAGATGT
DNA 2: ACATCTCGCGTGCTCGGTCATTCTGCAGATGCGGAGTGAA
DNA 3: TTCACTCCGCATCTGACGATTCTGGCTGTGGCGTGTTTCT
DNA 4: AGAAACACGCCACAGCCAGAAAGCTGATTGCGAGGCCGTC
modifications: thiol tether on phosphate after nt 25 of strand 4 only; the table lists one shared single B strand (S19) for HJ-28/29
Turning to B6, the binding result with Tt-RuvC E70Q T11C [4] is listed as “binds”.

B7: HJ-28bb-h (structured_DNA)
DNA 1: GACGGCCTCGCAATCGACTATGACCGAGCACGCGAGATGT
DNA 2: ACATCTCGCGTGCTCGGTCATTCTGCAGATGCGGAGTGAA
DNA 3: TTCACTCCGCATCTGCAGATTCTGGCTGTGGCGTGTTTCT
DNA 4: AGAAACACGCCACAGCCAGAAAGTCGATTGCGAGGCCGTC
modifications: thiol tether on phosphate after nt 24 of strand 4 only
In the case of B7, the binding result with Tt-RuvC E70Q P40C [5] is given as “binds”.

B8: HJ J221/J222 (structured_DNA)
DNA 1: CAATCGGCTTTGACCTTTGGTCAATCGGCAGAT
DNA 2: ATCTGCCGATTCTGGTTTCCAGAAAGCCGATTG
As for B8, in the series with Tt-RuvC E70Q, the binding result was “binds”.

B9: HJ-26-h (structured_DNA)
DNA 1: CAATCGGCTATGACCTTTGGTCATTGGGCAGAT
DNA 2: ATCTGCCCATTCTGGTTTCCACAAAGCCGATTG
modifications: thiol on guanine 26 of one strand
As to B9, the binding result with Tt-RuvC E70Q L80C is listed as “binds”.

B10: HJ-8-h (structured_DNA)
DNA 1: CAATCGGGTATGACCTTTGGTCATTCGGCAGAT
DNA 2: ATCTGCCGATTCTGGTTTCTAGAAACCCGATTG
modifications: thiol on guanine 8 of one strand
Regarding B10, the binding result with Tt-RuvC E70Q L80C is recorded as “binds”.

B11: RuvC protein from T. thermophilus (Tt-RuvC), unliganded (apo) crystal form (enzyme)
chain: MVVAGIDPGITHLGLGVVAVEGKGALKARLLHGEVVKTSPQEPAKERVGRIHARVLEVLHRFRPEAVAVEEQFFYRQNELAYKVGWALGAVLVAAFEAGVPVYAYGPMQVKQALAGHGHAAKEEVALMVRGILGLKEAPRPSHLADALAIALTHAFYARMGTAKPL
modifications: selenomethionine-substituted protein (SAD data)
notes: RuvC Holliday junction resolvase, Thermus thermophilus; No PDB id is printed for the apo structure; also called apo Tt-RuvC; RuvC resolvase; source: E. coli, purified (nickel column, tag cleavage, Mono-S column)
As to B11, in series [6], the “stoichiometry N” value was 2.
